Experimental data taken from US9534059B2, “TIKI inhibitors” (Children's Medical Center Corporation, priority 2012, dated 2017).

What was measured:
[1] = system: Tiki1 and Dkk1 expression; test: RT-PCR of Tiki1 and Dkk1 expression in treated whole embryos (FIG. 2M); assay type: in vivo, Xenopus
Protocol: (M) Tiki1 expression is regulated by maternal Wnt signaling. Whole embryos were used for LiCl or UV treatment. 20 or 40 pg of Xwnt8 mRNA was injected into the ventral marginal zone (VMZ) at 4 to 8-cell stage and the VMZ was dissected at stage 10.5 for RT-PCR. ΔNTCF mRNA (1 or 2 ng) was injected into the dorsal marginal zone (DMZ) at 4 to 8-cell stage and the DMZ was dissected at stage 10.5 for RT-PCR. Con: control.
Organizer formation requires maternal Wnt/β-catenin signaling (De Robertis and Kuroda, 2004; Harland and Gerhart, 1997), which is necessary and sufficient for Tiki1 (and Dkk1) expression. Ectopic Xwnt8 induced Tiki1 and Dkk1 expression ventrally, whereas a dominant negative TCF (T cell factor, a DNA-binding transcription factor that mediates beta-catenin signaling), ΔNTCF (Molenaar et al., 1996), suppressed the endogenous Tiki1 and Dkk1 dorsal expression (FIG. 2M). Furthermore LiCl, which stabilizes β-catenin thus dorsalizes embryos, induced Tiki1 and Dkk1 expression, while ultraviolet irradiation, which through microtubule disruption causes defective maternal Wnt signaling thus ventralizes embryos (Harland and Gerhart, 1997), suppressed Tiki1 and Dkk1 expression (FIG. 2M).

Wnt3a = test: TOPFLASH assay of TIKI2N mutants co-transfected with Wnt3a in HEK293T cells; assay type: cell-based, human; conditions: 5, 2.5, 1.25 and 0.612 ng plasmid with Wnt3a 20 ng
Protocol: FIG. 8B. Bar graph showing the results of a TOPFLASH assay testing TIKI2 mutations in Human TIKI2N construct (no transmembrane domain). Decreasing doses of 5, 2.5, 1.25 and 0.612 ng of the indicated TIKI2N expression plasmid were cotransfected with Wnt3a (20 ng) in HEK293T cells.
HEK293T, HeLa, L and L-Wnt3a cells (from ATCC) were maintained in Dulbecco's modified Eagle's medium (DMEM; Invitrogen) supplemented with 10% fetal bovine serum (FBS) and 1% penicillin-streptomycin-glutamine (Invitrogen). Lipofectamine 2000 (Invitrogen) or Fugene6 (Roche) was used for all cell transfections. L and L-Wnt3a cells that stably express TIKI2 were generated by infecting cells with retroviruses and selected by puromycin. L cells stably expressing Wnt3a(FLAG) were established by transfecting L cells with a Wnt3a(FLAG) expressing vector and selected with neomycine. L cells stably expressing both Wnt3a(FLAG) and TIKI2 were also generated. TOPFLASH reporter assay was performed as previously described (MacDonald et al., 2008).
A Wnt-responsive reporter (TOP-FLASH) assay was performed to test mutations at T56A, H58A, E85A, E205A, H256A, R303A, H331A in a Human TIKI2N construct (no transmembrane domain). Decreasing doses of 5, 2.5, 1.25 and 0.612 ng of the indicated TIKI2N expression plasmid were co-transfected with Wnt3a (20 ng) in HEK293T cells. […] T56A, H256A, and R303A had no effect on TIM activity, and so are likely to be less important sites for function.

Molecule | Tiki1 and Dkk1 expression [1] | TIKI activity of TIKI2N mutants (inhibition of Wnt3a-induced TOPFLASH) (Wnt3a)
[Cl-].[Li+] [LiCl] | induced | 
T56A: alanine mutation in Human TIKI2N construct (no transmembrane domain) (protein, UniProt A6NFA1 20-494, looked up, variant T56A, extracellular domain) extracellular domain: RPQPPDGGQCRPPGSQRDLNSFLWTIRRDPPAYLFGAIHVPYTRVWDFIPDNSKAAFQASTRVYFELDLTDPYTISALASCQLLPHGENLQDVLPHELYWRLKRHLDYVKLMMPSWMTPAQRGKGLYADYLFNAIAGNWERKRPVWVMLMVNSLTERDVRFRGVPVLDLYLAQQAEKMKKTTGAVEQVEEQCHPLNNGLNFSQVLFALNQTLLQQESVRAGSLQASYTTEDLIKHYNCGDLSAVIFNHDTSQLPNFINTTLPPHEQVTAQEIDSYFRQELIYKRNERMGKRVMALLRENEDKICFFAFGAGHFLGNNTVIDILRQAGLEVDHTPAGQAIHSPAPQSPAPSPEGTSTSPAPVTPAAAVPEAPSVTPTAPPEDEDPALSPHLLLPDSLSQLEEFGRQRKWHKRQSTHQRPRQFNDLWVRIEDSTTASPPPLPLQPTHSSGTAKPPFQLSDQLQQQDPPGPASSSAPT |  | no effect
R303A: alanine mutation in Human TIKI2N construct (no transmembrane domain) (protein, UniProt A6NFA1 20-494, looked up, variant R303A, extracellular domain) extracellular domain: RPQPPDGGQCRPPGSQRDLNSFLWTIRRDPPAYLFGTIHVPYTRVWDFIPDNSKAAFQASTRVYFELDLTDPYTISALASCQLLPHGENLQDVLPHELYWRLKRHLDYVKLMMPSWMTPAQRGKGLYADYLFNAIAGNWERKRPVWVMLMVNSLTERDVRFRGVPVLDLYLAQQAEKMKKTTGAVEQVEEQCHPLNNGLNFSQVLFALNQTLLQQESVRAGSLQASYTTEDLIKHYNCGDLSAVIFNHDTSQLPNFINTTLPPHEQVTAQEIDSYFRQELIYKANERMGKRVMALLRENEDKICFFAFGAGHFLGNNTVIDILRQAGLEVDHTPAGQAIHSPAPQSPAPSPEGTSTSPAPVTPAAAVPEAPSVTPTAPPEDEDPALSPHLLLPDSLSQLEEFGRQRKWHKRQSTHQRPRQFNDLWVRIEDSTTASPPPLPLQPTHSSGTAKPPFQLSDQLQQQDPPGPASSSAPT |  | no effect
